Laboratory results: US20140315800A1 (published 2014)
Positions of bridges follow the written chain, without caps; N, C: chain ends. No end group written: not given here. *: point of attachment. βGlcNAc = CC(=O)N[C@@H]1[C@@H](O)[C@H](O)[C@@H](CO)O[C@H]1*; diGlcNAc = diGlcNAc sugar chain; disialo = disialo sugar chain; GlcNAc = N-acetylglucosamine

Legend:
SSTR1 [1] = target: T1, SSTR1 (Human, UniProt P30872 1-391); assay: cell-based or functional assay
SSTR2 = SSTR2 (Human, UniProt P30874 1-369); assay: cell-based or functional assay
Chain of SSTR2 (P30874 whole entry): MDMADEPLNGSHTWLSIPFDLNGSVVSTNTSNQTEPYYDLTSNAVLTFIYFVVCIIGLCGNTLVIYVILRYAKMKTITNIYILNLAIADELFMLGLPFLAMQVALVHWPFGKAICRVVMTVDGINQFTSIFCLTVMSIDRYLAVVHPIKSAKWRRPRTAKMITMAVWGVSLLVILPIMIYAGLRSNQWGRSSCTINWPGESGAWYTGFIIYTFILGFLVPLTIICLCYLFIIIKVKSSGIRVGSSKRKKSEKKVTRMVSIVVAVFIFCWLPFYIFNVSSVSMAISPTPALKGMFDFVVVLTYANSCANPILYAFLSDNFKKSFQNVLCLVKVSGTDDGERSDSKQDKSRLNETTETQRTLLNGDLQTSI

SSTR3 [2] = target: T2, SSTR3 (Human, UniProt P32745 1-418); assay: cell-based or functional assay
T2 sequence (P32745 whole entry): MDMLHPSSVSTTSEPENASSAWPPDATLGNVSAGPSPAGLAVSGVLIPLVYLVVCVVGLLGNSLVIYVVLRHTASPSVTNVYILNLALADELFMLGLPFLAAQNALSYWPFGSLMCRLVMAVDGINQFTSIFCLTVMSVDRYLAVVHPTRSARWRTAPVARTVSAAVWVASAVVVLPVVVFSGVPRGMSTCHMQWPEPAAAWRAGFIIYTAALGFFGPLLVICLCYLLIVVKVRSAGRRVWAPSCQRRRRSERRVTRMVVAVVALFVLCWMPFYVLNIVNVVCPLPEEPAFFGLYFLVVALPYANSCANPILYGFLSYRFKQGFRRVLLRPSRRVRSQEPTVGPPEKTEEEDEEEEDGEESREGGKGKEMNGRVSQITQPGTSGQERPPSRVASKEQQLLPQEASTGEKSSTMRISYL

SSTR4 [3] = target: T3, SSTR4 (Human, UniProt P31391 1-388); assay: cell-based or functional assay
T3 sequence (P31391 whole entry): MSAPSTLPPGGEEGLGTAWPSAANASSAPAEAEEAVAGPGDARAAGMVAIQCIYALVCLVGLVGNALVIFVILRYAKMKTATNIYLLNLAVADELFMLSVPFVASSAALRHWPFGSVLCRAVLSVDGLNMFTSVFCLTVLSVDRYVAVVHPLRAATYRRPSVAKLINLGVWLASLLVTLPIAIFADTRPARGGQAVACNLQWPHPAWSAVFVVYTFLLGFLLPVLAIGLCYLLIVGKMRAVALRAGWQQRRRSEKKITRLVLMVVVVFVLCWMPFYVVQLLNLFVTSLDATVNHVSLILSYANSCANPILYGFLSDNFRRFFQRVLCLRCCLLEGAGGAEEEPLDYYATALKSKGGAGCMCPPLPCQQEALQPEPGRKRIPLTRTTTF

SSTR1 [4] = target: T1, SSTR1; assay: radioligand competition, membranes
SSTR4 [5] = target: T3, SSTR4; assay: cell-based or functional assay; remark: listed apart in the source
SSTR3 [6] = target: T2, SSTR3; assay: radioligand competition, membranes
SSTR5 = SSTR5 (Human, UniProt P35346 1-364); assay: radioligand competition, membranes
Chain of SSTR5 (P35346 whole entry): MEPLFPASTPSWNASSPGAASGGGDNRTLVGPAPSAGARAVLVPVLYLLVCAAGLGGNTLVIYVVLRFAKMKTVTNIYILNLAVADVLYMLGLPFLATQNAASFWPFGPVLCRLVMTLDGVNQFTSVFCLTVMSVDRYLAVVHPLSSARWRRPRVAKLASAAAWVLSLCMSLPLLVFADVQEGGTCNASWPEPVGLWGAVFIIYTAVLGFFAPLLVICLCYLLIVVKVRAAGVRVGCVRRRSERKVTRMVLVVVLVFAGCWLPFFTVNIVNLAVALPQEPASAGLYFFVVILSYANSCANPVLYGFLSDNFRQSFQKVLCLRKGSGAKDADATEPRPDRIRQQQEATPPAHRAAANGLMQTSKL

SSTR1-SSTR5 = assay: radioligand competition, membranes

T1 sequence (P30872 whole entry): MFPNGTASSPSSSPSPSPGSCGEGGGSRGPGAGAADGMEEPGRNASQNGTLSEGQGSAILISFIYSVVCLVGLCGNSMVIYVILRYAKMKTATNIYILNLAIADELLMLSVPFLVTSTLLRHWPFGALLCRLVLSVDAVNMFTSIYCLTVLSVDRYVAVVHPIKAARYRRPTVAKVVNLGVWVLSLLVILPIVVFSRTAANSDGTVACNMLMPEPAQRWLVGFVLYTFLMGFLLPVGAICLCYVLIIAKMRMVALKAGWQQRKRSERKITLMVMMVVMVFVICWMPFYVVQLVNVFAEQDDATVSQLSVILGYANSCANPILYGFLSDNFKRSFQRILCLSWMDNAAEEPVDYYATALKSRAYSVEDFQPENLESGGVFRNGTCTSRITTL

B1: S1-5C(disialo)-SRIF28 (peptide)
peptide: CCCCCANSNPAMAPRERKAGCKNFFWKTFTSC
modifications: Ser 1 replaced by five consecutive Cys each with a disialo sugar chain; disulfide Cys17-Cys28 (SRIF28 numbering)
IC50 of agonist activity (cAMP) (SSTR1 [1]): 18 nM
IC50 of agonist activity (cAMP) (SSTR2): 0.81 nM
IC50 of agonist activity (cAMP) (SSTR3 [2]): 2 nM
IC50 of agonist activity (cAMP) (SSTR4 [3]): 0.27 nM

B2: 3C(disialo)-R-K-SRIF14 (peptide)
peptide: CCCRKAGCKNFFWKTFTSC
modifications: three N-terminal Cys each with a disialo sugar chain (Cys-Cys-Cys-Arg-Lys- added to SRIF14); disulfide Cys17-Cys28 (SRIF28 numbering)
Ki (SSTR1 [4]): 270 nM

B3: C(disialo)-K-SRIF14 (peptide)
peptide: C(disialo)KAGCKNFFWKTFTSC
modifications: disulfide 5-16
IC50 of agonist activity (cAMP) (SSTR3 [2]): 0.1 nM

B4: C(disialo)-R-K-SRIF14 (peptide)
peptide: C(disialo)RKAGCKNFFWKTFTSC
modifications: disulfide 6-17
IC50 of cAMP production suppression (agonist activity) (SSTR4 [5]): 0.05 nM

B5: N5C(disialo)•A9C(disialo)-SRIF28 (peptide)
peptide: SANSC(disialo)PAMC(disialo)PRERKAGCKNFFWKTFTSC
modifications: disulfide 17-28
binding result (SSTR3 [6]): binds

B6: T26C(disialo)-SRIF28 (peptide)
peptide: SANSNPAMAPRERKAGCKNFFWKTFC(disialo sugar chain)SC
modifications: disulfide 17-28
IC50 (SSTR5): 400 nM

B7: S1C(disialo)•N19C(GlcNAc)-SRIF28 (peptide)
peptide: C(disialo)ANSNPAMAPRERKAGCKC(GlcNAc)FFWKTFTSC
modifications: disulfide 17-28
IC50 of agonist activity (cAMP) (SSTR2): 0.08 nM

B8: S1C(disialo)•N5C(disialo)-SRIF28 (peptide)
peptide: C(disialo sugar chain)ANSC(disialo sugar chain)PAMAPRERKAGCKNFFWKTFTSC
modifications: disulfide 17-28
ratio of Ki to the Ki of unglycosylated SRIF14 (SSTR1-SSTR5): 15.7

B9: S1C(diGlcNAc)-SRIF28 (peptide)
peptide: C(diGlcNAc)ANSNPAMAPRERKAGCKNFFWKTFTSC
modifications: disulfide 17-28
IC50 of agonist activity (cAMP) (SSTR4 [3]): 0.05 nM

B10: C(disialo)-SRIF14 (peptide)
peptide: CAGCKNFFWKTFTSC
modifications: disialo sugar chain on Cys added at the N-terminus of SRIF14; disulfide Cys17-Cys28 (SRIF28 numbering)
IC50 of agonist activity (cAMP) (SSTR4 [3]): 0.1 nM

B11: S1-3C(asialo)-SRIF28 (peptide)
peptide: CCCANSNPAMAPRERKAGCKNFFWKTFTSC
modifications: Ser 1 replaced by three consecutive Cys each with an asialo sugar chain; disulfide Cys17-Cys28 (SRIF28 numbering)
IC50 of agonist activity (cAMP) (SSTR4 [3]): 0.1 nM

B12: S1C(GlcNAc)-SRIF28 (peptide)
peptide: C(βGlcNAc)ANSNPAMAPRERKAGCKNFFWKTFTSC
modifications: disulfide 17-28
IC50 of agonist activity (cAMP) (SSTR2): 0.04 nM

B13: S1-10C(disialo)-SRIF28 (peptide)
peptide: C(disialo)C(disialo)C(disialo)C(disialo)C(disialo)C(disialo)C(disialo)C(disialo)C(disialo)C(disialo)ANSNPAMAPRERKAGCKNFFWKTFTSC
modifications: disulfide 26-37
IC50 (SSTR5): 34.8 nM
